Data from patent US20220073613A1 (XILIO DEVELOPMENT, published 2022).

Molecular target: T1, human CTLA4-Fc (R&D Systems, #7268-CT) (human, UniProt P16410 36-162)
T1 construct: Bought; not shown: Fc part
Assay: low density antigen binding ELISA, human CTLA4-Fc coated at 1 µg/mL, anti-human kappa-HRP

T1 sequence (P16410 36-162 limits assumed): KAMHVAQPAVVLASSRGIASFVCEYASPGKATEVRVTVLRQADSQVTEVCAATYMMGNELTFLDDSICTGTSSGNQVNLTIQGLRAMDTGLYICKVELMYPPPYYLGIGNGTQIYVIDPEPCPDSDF

Row | EC50 | Binder
1 | 0.32 nM | Antibody 1-2 (antibody, human IgG1, kappa, also called version of Antibody 1 having a S239D mutation and an I332E mutation in the Fc region) light: DIVMTQTPLSLSVTPGQPASISCRSSQSLLNSDGNTYLYWYLQKPGQSPQLLIYLVSKLGSGVPNRFSGSGSGTDFTLKISRVEAEDVGVYYCVQGTHDPWTFGGGTKVEIKRTVAAPSVFIFPPSDEQLKSGTASVVCLLNNFYPREAKVQWKVDNALQSGNSQESVTEQDSKDSTYSLSSTLTLSKADYEKHKVYACEVTHQGLSSPVTKSFNRGEC heavy: not shown
2 | 0.32 nM | Antibody 1-1 (antibody, V domains shown, Humanized; wild type Fc region; Variable domains are stated for Antibody 1; full chains are not tied to the label Antibody 1-1; also called version of Antibody 1 having a wild type Fc region) VL: DIVMTQTPLSLSVTPGQPASISCRSSQSLLNSDGNTYLYWYLQKPGQSPQLLIYLVSKLGSGVPNRFSGSGSGTDFTLKISRVEAEDVGVYYCVQGTHDPWTFGGGTKVEIKR VH: QVQLQESGPGLVKPSETLSLTCSVTYHTITSGYDWTWIRKPPGKGMEWIGYISYSGNTNYNPSLKSRVTISRDTSKNQFFLKLSSVTAADTAVYYCASMMVPHYYVMDAWGQGTLVTVSSA
3 | 0.44 nM | Antibody 2-1 (antibody, V domains shown, Wild-type Fc region; Variable domains are stated for Antibody 2-6, another version of Antibody 2 that differs in the Fc region only; also called version of Antibody 2 having a wild-type Fc region) VL: EIVLTQSPDFQSVTPKEKVTITCSANSALSYMYWYQQKPDQSPKLWVHGTSNLASGVPSRFSGSGSGTDFTLTINSLEAEDAATYYCHHWSNTQWTFGGGTKVEIKR VH: QVQLVQSGAEVKKPGSSVKVSCKASGYTFTNYFMNWVRQAPGQGLEWMGRVDPEQGRADYAEKFKKRVTITADKSTSTAYMELSSLRSEDTAVYYCARRAMDNYGFAYWGQGTLVTVSSA
4 | 0.4 nM | Antibody 2-4 (antibody, V domains shown, Fc with S239D, I332E, A330L; also called version of Antibody 2 having S239D, I332E, and A330L mutations in the Fc region) VL: EIVLTQSPDFQSVTPKEKVTITCSANSALSYMYWYQQKPDQSPKLWVHGTSNLASGVPSRFSGSGSGTDFTLTINSLEAEDAATYYCHHWSNTQWTFGGGTKVEIKR VH: QVQLVQSGAEVKKPGSSVKVSCKASGYTFTNYFMNWVRQAPGQGLEWMGRVDPEQGRADYAEKFKKRVTITADKSTSTAYMELSSLRSEDTAVYYCARRAMDNYGFAYWGQGTLVTVSSA
5 | 0.4 nM | Antibody 2-3 (antibody, V domains shown, see m21; also called version of Antibody 2 having a S239D mutation, an I332E mutation in the Fc region, and two hinge region mutations) VL: EIVLTQSPDFQSVTPKEKVTITCSANSALSYMYWYQQKPDQSPKLWVHGTSNLASGVPSRFSGSGSGTDFTLTINSLEAEDAATYYCHHWSNTQWTFGGGTKVEIKR VH: QVQLVQSGAEVKKPGSSVKVSCKASGYTFTNYFMNWVRQAPGQGLEWMGRVDPEQGRADYAEKFKKRVTITADKSTSTAYMELSSLRSEDTAVYYCARRAMDNYGFAYWGQGTLVTVSSA
6 | 0.39 nM | Antibody 2-2 (antibody, V domains shown, Fc region with S239D and I332E; also called version of Antibody 2 having a S239D mutation and an I332E mutation in the Fc region; unmasked Antibody 2-2) VL: EIVLTQSPDFQSVTPKEKVTITCSANSALSYMYWYQQKPDQSPKLWVHGTSNLASGVPSRFSGSGSGTDFTLTINSLEAEDAATYYCHHWSNTQWTFGGGTKVEIKR VH: QVQLVQSGAEVKKPGSSVKVSCKASGYTFTNYFMNWVRQAPGQGLEWMGRVDPEQGRADYAEKFKKRVTITADKSTSTAYMELSSLRSEDTAVYYCARRAMDNYGFAYWGQGTLVTVSSA
7 | 0.41 nM | Antibody 2-5 (antibody, V domains shown, see m21; also called version of Antibody 2 having S239D, I332E, A330L mutations in the Fc region, and two hinge region mutations) VL: EIVLTQSPDFQSVTPKEKVTITCSANSALSYMYWYQQKPDQSPKLWVHGTSNLASGVPSRFSGSGSGTDFTLTINSLEAEDAATYYCHHWSNTQWTFGGGTKVEIKR VH: QVQLVQSGAEVKKPGSSVKVSCKASGYTFTNYFMNWVRQAPGQGLEWMGRVDPEQGRADYAEKFKKRVTITADKSTSTAYMELSSLRSEDTAVYYCARRAMDNYGFAYWGQGTLVTVSSA

Molecular target: T1, human CTLA4-Fc (R&D Systems, #7268-CT)
Assay: low density antigen binding ELISA, human CTLA4-Fc coated; no protease

Row | EC50 | Binder
8 | 34.9 nM | Antibody 2-11 (antibody, human IgG1, kappa) light: ACPFPALELCSSPSPSGGGGIGQLTASGGEIVLTQSPDFQSVTPKEKVTITCSANSALSYMYWYQQKPDQSPKLWVHGTSNLASGVPSRFSGSGSGTDFTLTINSLEAEDAATYYCHHWSNTQWTFGGGTKVEIKRTVAAPSVFIFPPSDEQLKSGTASVVCLLNNFYPREAKVQWKVDNALQSGNSQESVTEQDSKDSTYSLSSTLTLSKADYEKHKVYACEVTHQGLSSPVTKSFNRGEC heavy: not shown
9 | 14.2 nM | Antibody 2-13 (antibody, human IgG1, kappa) light: ACPFPALELCGGSSPPRAAAVKSPSGGEIVLTQSPDFQSVTPKEKVTITCSANSALSYMYWYQQKPDQSPKLWVHGTSNLASGVPSRFSGSGSGTDFTLTINSLEAEDAATYYCHHWSNTQWTFGGGTKVEIKRTVAAPSVFIFPPSDEQLKSGTASVVCLLNNFYPREAKVQWKVDNALQSGNSQESVTEQDSKDSTYSLSSTLTLSKADYEKHKVYACEVTHQGLSSPVTKSFNRGEC heavy: not shown

Further lines, the binder ahead of its results:

Row | Binder | EC50
10 | Antibody 2-9 (antibody, human IgG1, kappa) light: ACPFPALELCGGSSPPHEQLTVSGGEIVLTQSPDFQSVTPKEKVTITCSANSALSYMYWYQQKPDQSPKLWVHGTSNLASGVPSRFSGSGSGTDFTLTINSLEAEDAATYYCHHWSNTQWTFGGGTKVEIKRTVAAPSVFIFPPSDEQLKSGTASVVCLLNNFYPREAKVQWKVDNALQSGNSQESVTEQDSKDSTYSLSSTLTLSKADYEKHKVYACEVTHQGLSSPVTKSFNRGEC heavy: not shown | 48.9 nM
11 | Antibody 2-8 (antibody, human IgG1, kappa) light: ACPFPALELCGGPGSSPMPYDLYHPSGGEIVLTQSPDFQSVTPKEKVTITCSANSALSYMYWYQQKPDQSPKLWVHGTSNLASGVPSRFSGSGSGTDFTLTINSLEAEDAATYYCHHWSNTQWTFGGGTKVEIKRTVAAPSVFIFPPSDEQLKSGTASVVCLLNNFYPREAKVQWKVDNALQSGNSQESVTEQDSKDSTYSLSSTLTLSKADYEKHKVYACEVTHQGLSSPVTKSFNRGEC heavy: not shown | 54.8 nM
12 | Antibody 2-12 (antibody, human IgG1, kappa) light: ACPFPALELCGSPGSPKPILFFRLSGGEIVLTQSPDFQSVTPKEKVTITCSANSALSYMYWYQQKPDQSPKLWVHGTSNLASGVPSRFSGSGSGTDFTLTINSLEAEDAATYYCHHWSNTQWTFGGGTKVEIKRTVAAPSVFIFPPSDEQLKSGTASVVCLLNNFYPREAKVQWKVDNALQSGNSQESVTEQDSKDSTYSLSSTLTLSKADYEKHKVYACEVTHQGLSSPVTKSFNRGEC heavy: not shown | 3.3 nM

Molecular target: T1, human CTLA4-Fc (R&D Systems, #7268-CT)
Assay: low density antigen binding ELISA, human CTLA4-Fc coated; after protease digestion

Row | EC50 | Binder
13 | 0.67 nM | Antibody 2-8 (Activated) (antibody, not shown: small tags and cut ends) light: EIVLTQSPDFQSVTPKEKVTITCSANSALSYMYWYQQKPDQSPKLWVHGTSNLASGVPSRFSGSGSGTDFTLTINSLEAEDAATYYCHHWSNTQWTFGGGTKVEIKRTVAAPSVFIFPPSDEQLKSGTASVVCLLNNFYPREAKVQWKVDNALQSGNSQESVTEQDSKDSTYSLSSTLTLSKADYEKHKVYACEVTHQGLSSPVTKSFNRGEC heavy: not shown
14 | 0.67 nM | Antibody 2-9 (Activated) (antibody, not shown: remnant of the cleaved linker (part of HEQLTV and spacer SGG)) light: EIVLTQSPDFQSVTPKEKVTITCSANSALSYMYWYQQKPDQSPKLWVHGTSNLASGVPSRFSGSGSGTDFTLTINSLEAEDAATYYCHHWSNTQWTFGGGTKVEIKRTVAAPSVFIFPPSDEQLKSGTASVVCLLNNFYPREAKVQWKVDNALQSGNSQESVTEQDSKDSTYSLSSTLTLSKADYEKHKVYACEVTHQGLSSPVTKSFNRGEC heavy: not shown
15 | 0.62 nM | Antibody 2-12 (Activated) (antibody, not shown: small tags and cut ends) light: EIVLTQSPDFQSVTPKEKVTITCSANSALSYMYWYQQKPDQSPKLWVHGTSNLASGVPSRFSGSGSGTDFTLTINSLEAEDAATYYCHHWSNTQWTFGGGTKVEIKRTVAAPSVFIFPPSDEQLKSGTASVVCLLNNFYPREAKVQWKVDNALQSGNSQESVTEQDSKDSTYSLSSTLTLSKADYEKHKVYACEVTHQGLSSPVTKSFNRGEC heavy: not shown
16 | 0.62 nM | Antibody 2-11 (Activated) (antibody, not shown: small tags and cut ends) light: EIVLTQSPDFQSVTPKEKVTITCSANSALSYMYWYQQKPDQSPKLWVHGTSNLASGVPSRFSGSGSGTDFTLTINSLEAEDAATYYCHHWSNTQWTFGGGTKVEIKRTVAAPSVFIFPPSDEQLKSGTASVVCLLNNFYPREAKVQWKVDNALQSGNSQESVTEQDSKDSTYSLSSTLTLSKADYEKHKVYACEVTHQGLSSPVTKSFNRGEC heavy: not shown
